In patent US20110251256A1 (KOREA UNIVERSITY INDUSTRIAL AND ACADEMIC COLLABORATIVE …, published 2011):

T1: M-Cadherin (endogenous protein of C2C12 myotubes), P33146
T1 chain: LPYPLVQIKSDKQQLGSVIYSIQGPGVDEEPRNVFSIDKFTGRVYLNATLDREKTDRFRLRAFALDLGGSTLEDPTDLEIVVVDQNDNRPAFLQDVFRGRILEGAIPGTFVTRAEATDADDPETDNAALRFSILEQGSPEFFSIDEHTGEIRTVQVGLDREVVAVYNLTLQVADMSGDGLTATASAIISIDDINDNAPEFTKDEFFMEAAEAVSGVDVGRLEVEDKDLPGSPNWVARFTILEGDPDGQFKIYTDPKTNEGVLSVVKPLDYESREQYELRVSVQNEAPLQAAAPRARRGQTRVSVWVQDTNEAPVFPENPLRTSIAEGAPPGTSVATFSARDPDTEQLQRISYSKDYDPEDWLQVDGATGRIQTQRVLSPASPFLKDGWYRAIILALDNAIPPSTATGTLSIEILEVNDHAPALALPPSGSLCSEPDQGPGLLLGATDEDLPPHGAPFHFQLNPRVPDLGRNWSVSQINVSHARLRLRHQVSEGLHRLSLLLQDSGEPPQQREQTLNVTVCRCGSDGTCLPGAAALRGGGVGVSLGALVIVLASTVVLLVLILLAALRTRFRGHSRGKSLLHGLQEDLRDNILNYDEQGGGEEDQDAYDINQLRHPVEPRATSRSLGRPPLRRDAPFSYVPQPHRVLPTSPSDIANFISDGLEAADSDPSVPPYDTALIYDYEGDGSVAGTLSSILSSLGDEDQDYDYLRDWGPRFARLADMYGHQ

T2: IRS-1 (endogenous protein of C2C12 cells), P35569
T2 chain: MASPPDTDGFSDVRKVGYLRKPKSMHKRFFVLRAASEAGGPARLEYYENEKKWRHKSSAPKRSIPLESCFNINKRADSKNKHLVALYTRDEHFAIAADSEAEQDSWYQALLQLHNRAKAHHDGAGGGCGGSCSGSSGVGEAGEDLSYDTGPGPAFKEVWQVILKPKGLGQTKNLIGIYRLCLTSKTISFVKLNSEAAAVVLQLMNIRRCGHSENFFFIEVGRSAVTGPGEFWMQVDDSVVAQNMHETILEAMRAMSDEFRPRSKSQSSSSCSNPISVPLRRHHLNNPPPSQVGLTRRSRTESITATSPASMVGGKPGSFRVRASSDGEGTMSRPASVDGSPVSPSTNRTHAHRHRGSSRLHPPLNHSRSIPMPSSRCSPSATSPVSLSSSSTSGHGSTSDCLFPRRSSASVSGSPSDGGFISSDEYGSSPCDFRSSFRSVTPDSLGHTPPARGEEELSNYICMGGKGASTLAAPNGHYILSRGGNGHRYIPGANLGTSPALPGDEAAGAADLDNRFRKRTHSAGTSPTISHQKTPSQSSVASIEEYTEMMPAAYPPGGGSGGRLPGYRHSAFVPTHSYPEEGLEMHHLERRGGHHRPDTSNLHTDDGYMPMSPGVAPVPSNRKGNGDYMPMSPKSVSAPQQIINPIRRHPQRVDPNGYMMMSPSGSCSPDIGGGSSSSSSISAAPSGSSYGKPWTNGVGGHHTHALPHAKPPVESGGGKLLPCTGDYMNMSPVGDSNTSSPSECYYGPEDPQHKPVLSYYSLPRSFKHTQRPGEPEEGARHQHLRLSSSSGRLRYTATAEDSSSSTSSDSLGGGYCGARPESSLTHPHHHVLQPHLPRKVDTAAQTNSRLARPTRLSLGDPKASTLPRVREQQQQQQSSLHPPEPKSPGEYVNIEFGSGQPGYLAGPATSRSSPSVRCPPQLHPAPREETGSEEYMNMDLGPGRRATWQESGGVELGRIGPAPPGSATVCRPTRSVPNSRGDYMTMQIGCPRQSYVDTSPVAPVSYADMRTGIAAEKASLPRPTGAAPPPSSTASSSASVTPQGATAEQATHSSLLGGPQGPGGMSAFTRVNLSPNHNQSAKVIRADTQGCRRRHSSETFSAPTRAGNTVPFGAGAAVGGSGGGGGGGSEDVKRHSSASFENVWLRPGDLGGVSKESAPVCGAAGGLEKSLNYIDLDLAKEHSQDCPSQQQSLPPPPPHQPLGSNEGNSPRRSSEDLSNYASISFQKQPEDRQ

T3: IRS-1 (endogenous protein of C2C12 cells) (UniProt P35569 1-1233)
T3 construct: also called insulin receptor substrate-1
T3 sequence (looked up): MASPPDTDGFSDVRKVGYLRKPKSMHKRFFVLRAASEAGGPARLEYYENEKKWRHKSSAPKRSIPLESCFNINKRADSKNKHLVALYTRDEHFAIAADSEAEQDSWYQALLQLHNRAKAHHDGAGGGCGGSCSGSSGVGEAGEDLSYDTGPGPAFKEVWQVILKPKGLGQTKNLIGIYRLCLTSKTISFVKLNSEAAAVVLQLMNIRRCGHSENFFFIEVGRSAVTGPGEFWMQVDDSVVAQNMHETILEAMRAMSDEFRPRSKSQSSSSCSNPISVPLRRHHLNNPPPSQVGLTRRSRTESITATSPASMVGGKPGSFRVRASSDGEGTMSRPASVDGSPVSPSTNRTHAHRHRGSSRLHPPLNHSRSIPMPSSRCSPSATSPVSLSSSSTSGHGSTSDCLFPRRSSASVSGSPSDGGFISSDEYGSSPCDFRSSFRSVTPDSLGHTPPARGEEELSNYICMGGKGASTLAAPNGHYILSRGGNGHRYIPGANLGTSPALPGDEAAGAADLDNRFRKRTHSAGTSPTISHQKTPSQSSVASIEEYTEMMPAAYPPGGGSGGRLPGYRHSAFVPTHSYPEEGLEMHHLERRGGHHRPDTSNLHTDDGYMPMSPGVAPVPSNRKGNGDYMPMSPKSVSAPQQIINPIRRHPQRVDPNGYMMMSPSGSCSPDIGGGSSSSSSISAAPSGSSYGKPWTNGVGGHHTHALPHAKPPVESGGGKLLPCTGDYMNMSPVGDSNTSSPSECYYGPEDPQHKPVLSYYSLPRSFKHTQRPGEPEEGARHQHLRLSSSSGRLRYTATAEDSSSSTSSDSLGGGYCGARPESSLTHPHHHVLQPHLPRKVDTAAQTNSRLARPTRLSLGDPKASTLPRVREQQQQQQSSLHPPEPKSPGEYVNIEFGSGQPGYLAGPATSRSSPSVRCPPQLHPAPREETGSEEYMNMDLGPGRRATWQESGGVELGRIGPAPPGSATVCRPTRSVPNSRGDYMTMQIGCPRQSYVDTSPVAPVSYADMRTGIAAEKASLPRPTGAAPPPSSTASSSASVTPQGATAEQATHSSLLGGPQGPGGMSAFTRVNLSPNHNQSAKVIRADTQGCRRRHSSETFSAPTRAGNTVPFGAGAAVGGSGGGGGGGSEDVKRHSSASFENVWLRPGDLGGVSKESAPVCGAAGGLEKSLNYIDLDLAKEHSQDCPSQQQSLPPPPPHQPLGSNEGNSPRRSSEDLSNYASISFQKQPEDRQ

T4: β-Catenin (endogenous protein of C2C12 myotubes) (UniProt Q02248 2-781)
T4 construct: also called 13-Catenin
T4 sequence (looked up): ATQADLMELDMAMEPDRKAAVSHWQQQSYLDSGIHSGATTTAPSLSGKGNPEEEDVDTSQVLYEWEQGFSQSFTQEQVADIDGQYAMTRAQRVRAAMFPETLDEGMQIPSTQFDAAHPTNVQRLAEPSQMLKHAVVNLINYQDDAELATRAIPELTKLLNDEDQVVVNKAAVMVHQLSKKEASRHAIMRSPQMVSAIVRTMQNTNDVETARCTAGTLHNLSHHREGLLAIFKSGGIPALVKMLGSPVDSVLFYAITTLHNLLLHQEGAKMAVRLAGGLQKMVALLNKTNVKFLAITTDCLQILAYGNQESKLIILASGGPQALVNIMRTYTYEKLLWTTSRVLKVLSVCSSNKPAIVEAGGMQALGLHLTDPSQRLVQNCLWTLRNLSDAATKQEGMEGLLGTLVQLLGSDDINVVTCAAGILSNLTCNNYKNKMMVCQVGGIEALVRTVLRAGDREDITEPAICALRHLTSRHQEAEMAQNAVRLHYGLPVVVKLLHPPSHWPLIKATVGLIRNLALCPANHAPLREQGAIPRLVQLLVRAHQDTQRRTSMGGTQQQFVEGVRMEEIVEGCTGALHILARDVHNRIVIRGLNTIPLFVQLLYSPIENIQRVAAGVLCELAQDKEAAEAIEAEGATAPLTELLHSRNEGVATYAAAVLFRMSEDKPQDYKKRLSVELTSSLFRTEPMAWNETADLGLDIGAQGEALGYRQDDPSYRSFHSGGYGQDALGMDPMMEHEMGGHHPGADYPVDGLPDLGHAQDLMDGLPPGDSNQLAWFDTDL

B1: M-Cadherin (endogenous protein of C2C12 myotubes) (other, UniProt P33146 60-784, looked up)
chain: LPYPLVQIKSDKQQLGSVIYSIQGPGVDEEPRNVFSIDKFTGRVYLNATLDREKTDRFRLRAFALDLGGSTLEDPTDLEIVVVDQNDNRPAFLQDVFRGRILEGAIPGTFVTRAEATDADDPETDNAALRFSILEQGSPEFFSIDEHTGEIRTVQVGLDREVVAVYNLTLQVADMSGDGLTATASAIISIDDINDNAPEFTKDEFFMEAAEAVSGVDVGRLEVEDKDLPGSPNWVARFTILEGDPDGQFKIYTDPKTNEGVLSVVKPLDYESREQYELRVSVQNEAPLQAAAPRARRGQTRVSVWVQDTNEAPVFPENPLRTSIAEGAPPGTSVATFSARDPDTEQLQRISYSKDYDPEDWLQVDGATGRIQTQRVLSPASPFLKDGWYRAIILALDNAIPPSTATGTLSIEILEVNDHAPALALPPSGSLCSEPDQGPGLLLGATDEDLPPHGAPFHFQLNPRVPDLGRNWSVSQINVSHARLRLRHQVSEGLHRLSLLLQDSGEPPQQREQTLNVTVCRCGSDGTCLPGAAALRGGGVGVSLGALVIVLASTVVLLVLILLAALRTRFRGHSRGKSLLHGLQEDLRDNILNYDEQGGGEEDQDAYDINQLRHPVEPRATSRSLGRPPLRRDAPFSYVPQPHRVLPTSPSDIANFISDGLEAADSDPSVPPYDTALIYDYEGDGSVAGTLSSILSSLGDEDQDYDYLRDWGPRFARLADMYGHQ

Tests used:
[1] = target: T1, M-Cadherin (endogenous protein of C2C12 …)
[2] = target: T2, IRS-1 (endogenous protein of C2C12 …)
[3] = target: T3, IRS-1 (endogenous protein of C2C12 …); experiment: endogenous immunoprecipitation in C2C12 myotubes treated with IGF-I for 0, 5 and 30 minutes (FIG. 9A)
Procedure: Western blotting and immunostaining were performed as described in Kim, K. B. et al. Proteomics 6, 2444-53 (2006). For immunoprecipitation, cells were lysed in buffer containing 20 mM Tris-HCl pH 7.4, 137 mM NaCl, 1 mM MgCl₂, 1 mM CaCl₂, 20 mM NaF, 10 mM Na₄P₂O₇, 1% NP-40, 1 mM Na₃VO₄, 1 mM PMSF and protease inhibitor cocktail (Roche). The whole cell lysates (600 μg protein) were incubated with specific antibodies for 90 min and then with 50 μl of Protein A-sepharose or G-agarose bead (50%) slurry for 1 h. The immunoprecipitates were analyzed by Western blotting.
Next, the effect of TRIM72 on IGF-1-induced tyrosine phosphorylation of IGFR and IRS-1 was investigated. The tyrosine phosphorylation of IGFR induced by IGF-I was not changed by TRIM72 overexpression or knockdown (FIG. 8). […] Moreover, the molecular association of IRS-1 with PI3K after IGF-I stimulation was weakened by TRIM72 overexpression, but fortified by TRIM72 knockdown. […] In order to analyze the binding domains of TRIM72 and IRS-1, various mutants of both genes were manufactured (FIG. 9B) and transfected into 293 cells. Then, the binding activity was investigated by immunoprecipitation. […] It should be noted that the 293 cells were treated with MG132 (proteasome inhibitor) after transferring IRS-1 and TRIM72.

[4] = target: B1; experiment: immunoprecipitation of myotube protein with TRIM72 antibody or M-Cadherin antibody (FIGS. 12G and 12H)
[5] = target: T4, β-Catenin (endogenous protein of C2C12 …); experiment: immunoprecipitation from myotubes treated with Si-Control or Si-TRIM72 (FIG. 12F)

binding result [3]	binding result [4]	binding result [5]	Binder	ubiquitination of M-Cadherin in myotubes with reduced TRIM72 [1]	molecular association of IRS-1 with PI3K after IGF-I stimulation [2]	tyrosine phosphorylation of IRS-1 induced by IGF-I [2]
binds	binds		TRIM72 (endogenous protein of C2C12 myotubes) (enzyme, Endogenous protein in lysates of C2C12 myotubes; also called tripartite motif-containing 72) MSAAPGLLRQELSCPLCLQLFDAPVTAECGHSFCRACLIRVAGEPAADGTVACPCCQAPTRPQALSTNLQLSRLVEGLAQVPQGHCEEHLDPLSIYCEQDRTLVCGVCASLGSHRGHRLLPAAEAQARLKTQLPQQKMQLQEACMRKEKTVAVLEHQLVEVEETVRQFRGAVGEQLGKMRMFLAALESSLDREAERVRGDAGVALRRELSSLNSYLEQLRQMEKVLEEVADKPQTEFLMKFCLVTSRLQKILSESPPPARLDIQLPVISDDFKFQVWKKMFRALMPALEELTFDPSSAHPSLVVSSSGRRVECSDQKAPPAGEDTRQFDKAVAVVAQQLLSQGEHYWEVEVGDKPRWALGVMAADASRRGRLHAVPSQGLWLLGLRDGKILEAHVEAKEPRALRTPERPPARIGLYLSFADGVLAFYDASNPDVLTPIFSFHERLPGPVYPIFDVCWHDKGKNAQPLLLVGPEQEQA	Si-Control treated cells showed stained band (which denotes ubiquitination), whereas Si-TRIM72-treated cells did not	the molecular association of IRS-1 with PI3K after IGF-I stimulation was weakened by TRIM72 overexpression, but fortified by TRIM72 knockdown	the tyrosine phosphorylation of IRS-1 was decreased by TRIM72 overexpression, but increased by TRIM72 knockdown
		binds	B1			
